Test results from the supplement of paper PMC12042874.
± gives the uncertainty stated by the source.

Assay: amyloid nucleation score (Sup35N fusion, yeast selection) (log enrichment); library NNK3; higher = more nucleation; inactive = no reads after selection
How it was run: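 The nucleation score is the log enrichment of output over input reads, calculated with DiMSum and centred on the mode score of non-aggregating sequences. Sequences with under 100 input reads were excluded. Reads came from Illumina sequencing of plasmid inserts from psi-negative yeast expressing Sup35N fused to peptides of 20 random codons, induced 24 hours with 100 μM copper sulfate and grown 7 days at 30°C without adenine and uracil.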

Substance | amyloid nucleation score
FRGEMLFKVQF | 0.275 ± 0.27
SNYGTYRRNSPHSCLRTFWR | inactive
GNVDVAHCDWCKGSTCMLN | 2.64 ± 0.084
RNYDFSKGITVSWRLLHA | inactive
LAKHSFSFGVYCNSRNSVMY | inactive
FRMTPHIGALSNRLHVTTWL | -0.226 ± 0.7
DVFRRFAGRTLQLSPWDTTL | inactive
NTTCYIVRVMYVPHG | inactive
RIRCVMFGGRKSRRKLDSVV | inactive
RDDFYLNFNFNFVRHGTRDS | 1.26 ± 0.15
MMRSVHFFRCRQTHENLLMC | -0.207 ± 0.66
YYYLR | inactive
TLVGTFYSMQRSDRIWR | 0.475 ± 0.69
SSASYVHCDFYIFGGLAPSN | 2.8 ± 0.063
SLAINSYVCMYIHFQTTMRD | inactive
HAKADL | inactive
SGCRLLVVECPASCCWDITT | inactive
WHSKWVWNHNWLGSINCRYE | inactive
LIADHIVRSSSLMSWFSPSR | inactive
ILLKNFGYEHAAKLNTMKMI | inactive
NQGWTCWCVSCCLGVKIVMI | inactive
DLVTSTGYSGVNAVSDIEDF | inactive
EYYRWFYN | inactive
KRFDMMHIQTYEMGWSPSVR | inactive
VCDSHQ | inactive
ELALISHTLGSSATPNWFTV | inactive
LSVMLQ | 0.988 ± 0.19

Substance | amyloid nucleation score
KVIDGVDAMWCMKVFWV | inactive
VINVYTAINGSWALN | 2.17 ± 0.059
KWYQVGSVLKRIRLNILRG | -1.51 ± 2.4
CESDEH | inactive
GYQDSIGFSSR | inactive
SCQNRWYSSFHKLAETRSYW | inactive
MSCLG | inactive
NFPNPVVSNLRAYFMD | -0.371 ± 0.96
MCFKTEYSRSPGYIAN | inactive
HRMRLSCCTAFDTLVMIPIS | 0.482 ± 0.17
WVIACVMRYVVFKNKVMIVR | inactive
TLIQFSLMCVYFSDFLPKAF | inactive
DVVLTNVFDCML | inactive
EVFARIVPRDMMLFLILIIP | inactive
SYCDSNRGVDLV | -0.611 ± 0.75
LTSLLTARKNCTNFHN | inactive
RPWHPLLTSDVVNCWLKIRV | inactive
SIFPRTCTKFFLGVTGFCFN | -0.322 ± 0.8
RSYFGMARGAHFSAHFLLFL | inactive
ESSHRTSIFRDWCNSLLI | inactive
VSEIW | inactive
YQIDQSLCNWCYLGGSWFIA | 2.39 ± 0.072
ARYDRS | inactive
SYFGDYLKIYFFYTQHNLSC | inactive
RFKVT | inactive
TNNQNSDRFGVTVPSLTFVR | inactive
MILILY | inactive

Substance | amyloid nucleation score
SVNFSYASAIPHAQMIQVRV | inactive
AWRRSSEGYRFGNDYVTRAT | inactive
FIMLQSPTNSSQILMPTQFT | inactive
VLTIRRFLRVSHFRNQWFPV | inactive
LIPQRDNMGGGFRTFSLCYV | inactive
PPKGKSWMLIVVNRLGEDEQ | inactive
PGVLLVWLSYSGSRLLS | inactive
SAYTTLRDRRCSKGYNMILG | inactive
DVDVPT | inactive
REVVRDWERCY | inactive
WTNIRFAF | inactive
HFMLNIWKVDNNMLWVLICP | inactive
YLSSIW | inactive
VLRYWRRLGQYTAGSYPEVL | inactive
CNMDISVCYYRLLMWQRGFR | inactive
ACFLVFGIYQEVMHDCIGRS | inactive
VTVCRHTPILIKKPM | inactive
VFFVNHFNVWLERM | inactive
HFCKRLENIVYLRIFIFYLN | inactive
FILLGRNGLG | inactive
NRASSVSCS | inactive
ISLVLVCYKASVITLWENQW | -0.627 ± 1.4
YSSPRSVNSYGLDYVYRTA | inactive
FMYMVNMVNVTVN | inactive
TGYYWFLFWNMWDWHVCGSS | inactive
TCWLVFSSFPINKLVLRNKT | inactive
